Assay results from patent US20100047245A1.

Key:
[1] = target: recombinant purified human IL-12 p70 (human) (UniProt P29459); test: SPR (BIAcore) per Example 1.1.B, recombinant human IL-12p70
[2] = target: recombinant purified human IL-12 p70 (human) (UniProt P29459); test: cell-based or functional assay
[3] = target: recombinant purified human IL-12 p70 (human) (UniProt P29459); test: SPR (Biacore) per Example 1.1.B, recombinant human IL-12p70
[4] = target: recombinant purified human IL-12 p70 (human) (UniProt P29459); test: competition ELISA on plate-coated human IL-12; competes 0.8 µg/ml biotinylated 8E1; Expt. 1
[5] = target: recombinant purified human IL-12 p70 (human) (UniProt P29459); test: SPR (Biacore) per Example 1.1.B; antigen not restated, taken as human IL-12 p70
[6] = target: recombinant purified human IL-12 p70 (human) (UniProt P29459); test: competition ELISA on plate-coated human IL-12; competes 0.8 µg/ml biotinylated 8E1; Expt. 2
[7] = target: recombinant purified human IL-12 p70 (human) (UniProt P29459); test: competition ELISA on plate-coated human IL-12; competes 0.8 µg/ml biotinylated 8E1; Expt. 3
[8] = target: recombinant purified human IL-12 p70 (human) (UniProt P29459); test: competition ELISA on plate-coated human IL-12; competes 0.8 µg/ml biotinylated 8E1; Average
[9] = target: recombinant purified human IL-12 p70 (human) (UniProt P29459); test: SPR (Biacore 3000), mAb captured via goat anti-mouse IgG Fc, human IL-12 p70 in solution
[10] = target: recombinant purified human IL-12 p70 (human) (UniProt P29459); test: SPR (BIAcore) per Example 1.1.B; antigen not restated, taken as human IL-12 p70

recombinant purified human IL-12 p70 (human), sequence (chain, as listed by the source, form in doubt, chain 1 of 2): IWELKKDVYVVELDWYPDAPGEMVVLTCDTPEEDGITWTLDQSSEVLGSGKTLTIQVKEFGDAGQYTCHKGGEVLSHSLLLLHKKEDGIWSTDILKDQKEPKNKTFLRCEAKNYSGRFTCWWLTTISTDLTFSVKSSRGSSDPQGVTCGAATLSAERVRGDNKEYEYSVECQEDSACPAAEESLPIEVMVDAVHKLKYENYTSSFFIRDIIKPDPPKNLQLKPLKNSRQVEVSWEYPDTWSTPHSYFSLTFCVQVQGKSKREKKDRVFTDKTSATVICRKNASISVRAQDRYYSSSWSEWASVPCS
recombinant purified human IL-12 p70 (human), sequence (P29459 23-219, form in doubt, chain 2 of 2): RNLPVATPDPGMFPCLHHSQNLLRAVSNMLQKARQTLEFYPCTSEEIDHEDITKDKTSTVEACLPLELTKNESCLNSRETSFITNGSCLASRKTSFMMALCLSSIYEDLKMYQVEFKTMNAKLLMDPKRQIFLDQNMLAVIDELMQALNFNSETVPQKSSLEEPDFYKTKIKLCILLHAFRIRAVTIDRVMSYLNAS

B1: 1A6.9 (antibody, human IgG1, kappa, L234A L235A, V domains shown)
VH: EVTLRESGPALVKPTQTLTLTCTFSGFSLSTSGMGVSWIRQPPGKALEWLAHIWWDGDNYYNPSLKSRLTISKDTSKNQVVLTMTNMDPVDTATYYCARRTRVNYAMDYWGQGTTVTVSS
VL: SVVMTQSPDSLAVSLGERATINCKASQSVSNDVAWFQQKPGQPPKLLIYYASNRYTGVPDRFSGSGYGTDFTLTISSLQAEDVAVYYCQQDYNSPWTFGGGTKVEIKR
Kd [1]: < 0.01 nM
koff [1]: < 1e-05 s⁻¹
kon [1]: 350000 M⁻¹ s⁻¹
Av. IC50(nM) huIL-12; PHA blast IFN-gamma induction assay [2]: 0.15 nM

B2: 8E1.1 (antibody, human IgG1, kappa, L234A L235A, V domains shown)
VH: EVQLVESGGGLVQPGGSLRLSCAASGFTFSDYGMVWVRQAPGKGLEWVGSISSGSSNIYYADTVKGRFTISRDDSKNSLYLQMNSLKTEDTAVYYCARNPYWGQGTTVTVSS
VL: DIQMTQSPSSLSASVGDRVTITCKASQNVGTNVAWYQQKPEKAPKSLIYSASHRYSGVPSRFSGSGSGTDFTLTISSLQPEDFATYYCQQYNSYPLTFGGGTKVEIKR
Av. IC50 (nM) Hu IL-12; PHA blast IFN-gamma induction assay [2]: 2.8 nM
Kd [3]: 1.7 nM
koff [3]: 0.00087 s⁻¹
kon [3]: 520000 M⁻¹ s⁻¹

B3: 8E1.6 (antibody, V domains shown)
VH: EVQLVESGGGLVQPGGSLRLSCAASGFTFSDYGMVWVRQAPGKGLEWVASISSGSSNIYYADTVKGRFTISRDDAKNTLYLQMNSLRAEDTAVYYCARNPYWGQGTLVTVSS
VL: DIQMTQSPSSLSASVGDRVTITCKASQNVGTNVAWYQQKPGKAPKGLIYSASHRYSGVPSRFSGSGSGTDFTLTISSLQPEDFATYYCQQYNSYPLTFGGGTKVEIKR
IC50 [4]: 2.25 µg/mL
Kd [5]: 0.046 nM
koff [5]: 8e-05 s⁻¹
kon [5]: 1.7e+06 M⁻¹ s⁻¹
IC50 [6]: 2.43 µg/mL
IC50 [7]: 1.61 µg/mL
IC50 [8]: 2.1 µg/mL

B4: 8E1.5 (antibody, IgG1, V domains shown)
VH: EVQLVESGGGLVQPGGSLRLSCAASGFTFSDYGMVWVRQAPGKGLEWVASISSGSSNIYYADTVKGRFTISRDNAKNTLYLQMNSLRAEDTAVYYCARNPYWGQGTLVTVSS
VL: DIQMTQSPSSLSASVGDRVTITCKASQNVGTNVAWYQQKPGKAPKGLIYSASHRYSGVPDRFSGSGSGTDFTLTISSLQPEDFATYYCQQYNSYPLTFGGGTKVEIKR
Kd [5]: 0.75 nM
koff [5]: 0.00124 s⁻¹
kon [5]: 1.6e+06 M⁻¹ s⁻¹
IC50 [7]: 13.4 µg/mL
Av. IC50(nM) huIL-12; PHA blast IFN-gamma induction assay [2]: 8 nM

B5: 8E1.4 (antibody, IgG1, V domains shown)
VH: EVQLVESGGGLVQPGGSLRLSCAASGFTFSDYGMVWVRQAPGKGLEWVASISSGSSNIYYADTVKGRFTISRDNAKNTLYLQMNSLRAEDTAVYYCARNPYWGQGTLVTVSS
VL: DIQMTQSPSSLSASVGDRVTITCKASQNVGTNVAWYQQKPGKAPKGLIYSASHRYSGVPSRFSGSGSGTDFTLTISSLQPEDFATYYCQQYNSYPLTFGGGTKVEIKR
Kd [5]: 1.3 nM
koff [5]: 0.001 s⁻¹
kon [5]: 800000 M⁻¹ s⁻¹
IC50 [7]: 8.33 µg/mL
Av. IC50(nM) huIL-12; PHA blast IFN-gamma induction assay [2]: 12 nM

B6: 8E1 (antibody, V domains shown)
VH: EVKLVESGGGLVQPGGSRKLSCAASGFTFSDYGMVWVRQAPGKGLEWVASISSGSSNIYYADTVKGRFTISRDDPNNTLFLQMRSLRSEDTAMYYCARNPYWGQGTTLTVSS
VL: DIVMTQSQKFMSTSVGDRVSVTCKASQNVGTNVAWYQQKPGQSPKGLIYSASHRYSGVPDRFAGSGSGTDFTLTISNVQSEDLAEYFCQQYNSYPLTFGGGTKLELKR
IC50 [4]: 2.63 µg/mL
IC50 [6]: 2.78 µg/mL
IC50 [7]: 2.28 µg/mL
Average IC50 (nM) Human IL-12; PHA blast IFN-gamma induction assay [2]: 0.19 nM
IC50 [8]: 2.56 µg/mL
Kd [9]: 0.074 nM
koff [9]: 5.1e-05 s⁻¹
kon [9]: 690000 M⁻¹ s⁻¹

B7: 8E1.3 (antibody, human IgG1, kappa, L234A L235A, V domains shown)
VH: EVKLVESGGGLVQPGGSLRLSCAASGFTFSDYGMVWVRQAPGKGLEWVASISSGSSNIYYADTVKGRFTISRDDSKNTLYLQMNSLKTEDTAVYYCARNPYWGQGTTVTVSS
VL: DIVMTQSPSSLSASVGDRVTITCKASQNVGTNVAWYQQKPEKAPKSLIYSASHRYSGVPSRFSGSGSGTDFTLTISSLQPEDFATYYCQQYNSYPLTFGGGTKVEIKR
Kd [1]: 0.76 nM
koff [1]: 0.001 s⁻¹
kon [1]: 1.3e+06 M⁻¹ s⁻¹
Av. IC50(nM) huIL-12; PHA blast IFN-gamma induction assay [2]: 10 nM

B8: 1A6.4 (antibody, human IgG1, V domains shown)
VH: QVTLKESGPGILKPSQTLSLTCSFSGFSLSTSGMGVSWIRQPSGKGLEWLAHIWWDGDNYYNPSLKSQLTISKDTSRNQVFLRIATVDTADTATYYCARRTRVNYAMDYWGQGTSVTVSS
VL: EIVMTQSPATLSVSPGERATLSCKASQSVSNDVAWYQQKPGQAPRLLIYYASNRYTGIPARFSGSGSGTEFTLTISSLQSEDFAVYYCQQDYNSPWTFGGGTKVEIKR
Av. IC50(nM) huIL-12; PHA blast IFN-gamma induction assay [2]: 2.1 nM
Kd [10]: 1 nM
koff [10]: 0.00011 s⁻¹
kon [10]: 110000 M⁻¹ s⁻¹
